Measurements published in patent US20210253725A1 (BIONTECH, published 2021).

Columns and labels:
[1] = molecular target: T1, CD134 expressed on the cell surface of HT1080_OX40 cells (human, UniProt P43489 29-277); experiment: cell-based or functional assay
T1 sequence (looked up): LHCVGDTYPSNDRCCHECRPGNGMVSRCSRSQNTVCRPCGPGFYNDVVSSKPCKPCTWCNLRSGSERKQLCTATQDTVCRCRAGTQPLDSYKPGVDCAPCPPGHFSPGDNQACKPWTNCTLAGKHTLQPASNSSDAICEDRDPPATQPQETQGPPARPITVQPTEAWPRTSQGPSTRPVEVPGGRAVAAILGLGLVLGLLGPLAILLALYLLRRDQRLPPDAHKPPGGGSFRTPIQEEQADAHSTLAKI

[2] = molecular target: T1, CD134 expressed on the cell surface of …; experiment: HT1080_OX40 cells, imaging
[3] = molecular target: T2, CD134 protein (His-tagged, Sino Biological Inc. 10481-H08H) (human, UniProt P43489 29-216); experiment: ELISA, coated His-tagged CD134
T2 construct: bought protein coated on ELISA plates; also called OX40; TNFRSF4; not shown: His tag
T2 sequence (looked up): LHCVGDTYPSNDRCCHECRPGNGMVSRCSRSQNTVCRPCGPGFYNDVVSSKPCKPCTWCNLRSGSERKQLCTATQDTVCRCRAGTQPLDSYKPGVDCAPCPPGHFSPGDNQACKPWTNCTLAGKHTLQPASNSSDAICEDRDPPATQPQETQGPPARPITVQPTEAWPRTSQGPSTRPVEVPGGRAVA
Note: test concentration or dose not given here.

B1: P018.S.11.A.E05 (antibody, V domains shown)
VH: QSLEESGGRLVTPGTPLTLNCTASGFSLSAYWMGWVRQAPGKGLEWIGIIYATGSTYYTTWAKGRFTISRTSTTVDLKMTSPTTEDTATYFCGRGDGYESLNLWGPGTLVTVSS
VL: AQVLTQTPSSVSAAVGGTVTINCQSSQSVYSNNLLSWYQQKPGQPPKRLIYGASTLDSGVSSRFKGSGSGTQFTLTISGMQSDDAATYYCLGYYSGGIYVFGGGTEVVVK
notes: V regions on human Ig constant parts; also called AB134_36
Question: With B1 as the binder, how does the “Functional assay Cross-linked by F(ab′)2 fragment IL-8” value (“Functional assay Cross-linked” for short) [1] read?
Answer: 1.42 abs. corr.

Question: And the “Functional assay IL-8” value [1]?
Answer: -0.265 abs. corr.

Question: And the “Cellular binding assay [RFU]” value [2]?
Answer: 407 RFU

Question: What about the “ELISA [abs. corr.]” value [3] of the same binder?
Answer: 1.66 abs. corr.

B2: P018.S.11.A.H04 (antibody, V domains shown)
VH: QEQLEESGGDLVKPGASLTLTCTASGLSFSGSYWICWVRQAPGKGLEWIGCITAGISGSTYYASWAKGRFTISKTSSTTVTLQMTSLTAADTATYFCARERTGGWGDFNLWGPGTLVTVSS
VL: DVVMTQTPASVEAAVGGTVTIKCQASQSITTYLSWYQQKPGQPPKLLIYLASTLESGVPSRFKGSRSGTEYTLTISDLESADAATYYCQCTDGGINHWFWAFGGGTEVVVK
notes: V regions on human Ig constant parts; also called AB134_47
Question: B2 was tested. Which “Functional assay Cross-linked” value [1] did it give?
Answer: 1.61 abs. corr.

Question: What about the “Functional assay IL-8” value [1] of the same binder?
Answer: 0.61 abs. corr.

Question: What about the “Cellular binding assay [RFU]” value [2] of the same binder?
Answer: 382 RFU

Question: What about the “ELISA [abs. corr.]” value [3] of the same binder?
Answer: 2.65 abs. corr.

B3: P018.S.11.A.E06 (antibody, V domains shown)
VH: QSVEESGGRLVTPGTPLTLTCTASGFSLSSYYMSWVRQAPGKGLEWIGIIDTGSGDTWYATWAKGRFTISKTSTTVDLKMTSLTTEDTATYFCARVNPEFAHVWPYYFDLWGQGTLVTVSS
VL: ALVMTQTPASVEVAVGGTVTIKCQASQSISSNFLSWYQQNPGQPPKLLIDRASTLESGVPSRFKGSGSGTEFTLTISDLESADAATYYCQQGDSLSNVENAFGGGTELVVK
notes: V regions on human Ig constant parts; also called AB134_37
Question: Which results are given for B3?
Answer: Functional assay Cross-linked by F(ab′)2 fragment IL-8 [1]: 1.72 abs. corr.; Functional assay IL-8 [1]: 0.278 abs. corr.; Cellular binding assay [RFU] [2]: 554 RFU; ELISA [abs. corr.] [3]: 2.05 abs. corr.

B4: P018.S.11.A.F02 (antibody, V domains shown)
VH: QSVEESGGRLVTPGTPLTLTCTASGFSLSNYNMGWVRQAPGEGLEWIGHISTDGSAYYASWAKGRFTISKTSTTVDLKITSPTTEDTGTYFCARLYYRHGYALNLWGQGTLVTVSS
VL: DIVMTQTPASVSEPVGGTVTIKCQASQSVGSYLAWYQQKSGQPPKLLIYSASTLASGVPSRFKGSGSGTEFTLTISDLVSADAATYYCHCTYGSNITANWGTFGGGTGVVVK
notes: V regions on human Ig constant parts; also called AB134_38
Question: B4 was tested. Which “Functional assay Cross-linked” value [1] did it give?
Answer: 1.38 abs. corr.

Question: What about the “Functional assay IL-8” value [1] of the same binder?
Answer: -0.011 abs. corr.

Question: And the “Cellular binding assay [RFU]” value [2]?
Answer: 503 RFU

Question: What about the “ELISA [abs. corr.]” value [3] of the same binder?
Answer: 2.43 abs. corr.

B5: P018.S.12.A.D02 (antibody, V domains shown)
VH: QSVEESGGRLVTPGTPLTLTCTVSGFSLRHYAMSWVRQAPGKGLEWIGVITTTANTYYASWAKGRFTVSKASSTTVDLKIMSPTIEDTATYFCARAMGLYDSYVDVDDTHDAFDPWGPGTLVTVSS
VL: AQVLTQTASPVSAAVGGTVTINCQSSQSVYNSHVLSWYQQKPGQPPKLLIYDASNLASGVPSRFSASGSGTQFTLTISGVQSDDAATYYCLGGYDDDADNIFAFGGGTEVVVA
notes: V regions on human Ig constant parts; also called AB134_67
Question: Which results are given for B5?
Answer: Functional assay Cross-linked by F(ab′)2 fragment IL-8 [1]: 1.77 abs. corr.; Functional assay IL-8 [1]: 0.333 abs. corr.; Cellular binding assay [RFU] [2]: 472 RFU; ELISA [abs. corr.] [3]: 2.64 abs. corr.

B6: P018.S.11.A.B04 (antibody, V domains shown)
VH: QEQLEESGGDLVKPEGSLTLTCTASGFSFSSAYYMCWVRQAPGKGLEWIACIDAGSSGSTYYASWAKGRFTISKTSSTTVTLQMTSLTAADTATYFCARDGGSTTGYGWLDLWGQGTLVTVSS
VL: AVVMTQTASPVSAAVGGTVTINCQASQSIGTNYLSWYQQKPGQPPKLLIYEASNLETGVPSRFKGSGSGTEYSLTISDLESADAATYYCLYSYYSSSSAYTFGGGTEVVVK
notes: V regions on human Ig constant parts; also called AB134_25
Question: What does the source list for B6?
Answer: Functional assay Cross-linked by F(ab′)2 fragment IL-8 [1]: 1.66 abs. corr.; Functional assay IL-8 [1]: -0.087 abs. corr.; Cellular binding assay [RFU] [2]: 444 RFU; ELISA [abs. corr.] [3]: 1.43 abs. corr.

B7: P018.S.12.A.A02 (antibody, V domains shown)
VH: QSLEESGGRLVTPGTPLTLTCTASGFSLSTYYMTWVRQAPGKGLEWIGDIYVRGGARYANWAKGRFTISRTSTTVDLRITSPTTEDTATYFCAREGLSLWGQGTLVTVSS
VL: AQVLTQTASPVSAAVGGTVTINCQSSQSVYKNNRLAWYQQKPGQPPKLLIYETSKLESGVSSRFKGSGSGTQFTLTISGVQSDDAATYYCLGGYDCGSADCNAFGGGTEVVVK
notes: V regions on human Ig constant parts; also called AB134_51
Question: Which “Functional assay Cross-linked” value [1] does the source give for B7 here?
Answer: 1.57 abs. corr.

Question: And the “Functional assay IL-8” value [1]?
Answer: 0.145 abs. corr.

Question: And the “Cellular binding assay [RFU]” value [2]?
Answer: 502 RFU

Question: What about the “ELISA [abs. corr.]” value [3] of the same binder?
Answer: 1.58 abs. corr.

B8: P018.S.11.A.G04 (antibody, V domains shown)
VH: QSVEESGGRLVTPGTPLTLTCTASGFDLSSYYMSWVRQAPGKGLEWIGIIYTDSSASYASWAKGRFTISRTSTTVDLKMTSPTTEDTATYFCARGLVVSTDNYNLWGPGTLVTVSS
VL: AAVLTQTPSPVSVAVGGTVTINCQASQSIYNNNYLAWFQQKPGQPPKLLIYYTSTLASGVPSRFKGSGSGTQFTLTINGVQSDDAATYYCLGDVGGGMRVFGGGTEVVVK
notes: V regions on human Ig constant parts; also called AB134_44
Question: B8 was tested. Which “Functional assay Cross-linked” value [1] did it give?
Answer: 1.75 abs. corr.

Question: What about the “Functional assay IL-8” value [1] of the same binder?
Answer: 0.014 abs. corr.

Question: What about the “Cellular binding assay [RFU]” value [2] of the same binder?
Answer: 482 RFU

Question: And the “ELISA [abs. corr.]” value [3]?
Answer: 2.13 abs. corr.
